Data as given in a protein production outcome set (Wang et al. 2014).

Experiment: label from the status in PepcDB records

Sequence	protein production
MQNIILTTKKIFRLAFILILIAATFMSCKTAPAKEETLIDLIKAGKSEELQERLNSSAINMKDEEGNSLLHIAAVKNDPIIVRLLINMDADIEAKNNTGATPLAAALNNSAYDAVKVLVEYNANIFAKDNEGEKPFDTACKNNVPNLILTAQTIKQKDENQDTVLHLAVKAMDKQLTKQILAIAPPETVYNKENLSPLAIAYKHNNAEDSAEIASILLLAGIQPMGKDFAEFETASLARNYSMRFADGETLLHIFARKGYTGFLKFLIKNKVPIDVKDISSSTAMQEAVYNGNTEAAILLLQAGADPNSRNSSGNTALHLVMPEASRSKLFNELITAGANPNLKDNYGETPLHVAARIGMNDDILDQLLKAGADINERNKKGQTPLILAIDRNQTQQVDFLINHGADIHAEDKSGESAFIHSLSMGLPMVEHVVTEKNSTERDSNGSTPLHLAVSHRASSDIIYYLVEKKSLINTRNKLGNTPLHIAAEKNYREAGEILIANNADIFYANLNGDSPLKFALTLREGREDWMINSHTIGAGDGAGNTPLHLAAEWQILPMIPYLIDKGADINARNTNNETPLFNAVRTDSPEAIKALLGEGVSKKADLDARDFLGNTILHAAVRWSAYKAADFILSKDTEEYVRLINAKNLAGKTVLHEAAKQGEIKFINIFLKAKVDVNAADETGRSPLSEAVLANQTQAIDLLLKNGASPVQQDMYGRTALHEAVEISEESIILVRNAGGNPLTKDAYGKTPFSLALNKNIRTVDLVLGNDSLLADTDGDTPLHIAVKERVSLDYFQRIMKKKYPVNKRNKNGETALLLAIQNSQKEITRALLAGGADPFIVNNKGVSAITEIFMHHPDFTPIAAEFSLKQTDTLGEGMLHYAAKFADVQTLKDILALPGIKLDVKNTAGETPYQVALRWNRSEIAELLKTE	failed
MQNIVIRQCGHEDESWMNTLYKQNSKQALYQLGKSLDEGFVQDNAHFDQVMKQWIEIGAVYAAEIEGDPVGFLVIQRERAQHGPEIIQYISSHENILILQERALSDLHYAGYGPVLVSPHARGKGVAKALHDHALHILKAEKFDAMVAFVDAENPTSLKIHVDALDMQIIDKVVLASGQFFIIGQVIG	failed
MQNNSYGYAVSVRVGGKEHRHWERYDIDSDFLIPADSFDFVIGRLGPEAAIPDLSGESCEVVIDGQIVMTGIIGSQRHGKSKGSRELSLSGRDLAGFLVDCSAPQLNVKGMTVLDAAKKLAAPWPQIKAVVLKAENNPALGKIDIEPGETVWQALTHIANSVGLHPWLEPDGTLVVGGADYSSPPVATLCWSRTDSRCNIERMDIEWDTDNRFSEVTFLAQSHGRSGDSAKHDLKWVYKDPTMTLHRPKTVVVSDADNLAALQKQAKKQLADWRLEGFTLTITVGGHKTRDGVLWQPGLRVHVIDDEHGIDAVFFLMGRRFMLSRMDGTQTELRLKEDGIWTPDAYPKKAEAARKRKGKRKGVSHKGKKGGKKQAETAVFE	not failed
MQPCPSEAPRVLHALTRRGMALALAATLSLVLSACGGGGDDTAAATTAPPSSNAVTPSPSPAPAPTYSVGGTVAGLGSGLSVKLLNNGGDAVTVTANGNFQFPTALASGAQYAATVGTRPSGQQCTIANDSGTMGSANVTNIAVTCSTRPLFAYTANSNDNTVSAYTLDPTTGAPTLIGTPISVGQGPLSLIADKAGKFVYVVDGNDNSVTTLAIDSETGLLTISGTPATTGMQPFNIARTPASTFAYTTNFGDNTLSGFSINATTGVLTSIGTIAAGTNPYTIVINKAGTFAYVVNAASGAGTPSAMVFSINGATGALTAVGSPVATGNAPFYIALHPAGTFAYVANSQDNTVQVYAINQTTGALTAVGSPVATGQGPIPIAIHPSGLFAYVGNVFDNTVSLYAINTGTGALTLKSTLATGNDPLAITLNDAGSIAYIVNGVDHDVVAYAVDSSTGALTSVATAQTGLLPRAFAIVAVP	failed
MQPEITSYRHPATGTVSYLVVDPATFLCAIVDPVLDFDPVTEEIDTRFVDAIIADIRAKDLGPTWILETGLHTGHLSAAGHLKYETGASVCIGAGVVESLKRLAPQFGETMVDLDGWDFDKLAQDGDTFPMGGLEITPIALTGRLPGAVAYRMADMVFTGDLVLAPAEGSGRCDIPGADAGKAWDDARKILALPPETRIMPGVSATAACESTVADAKASNIQLNDTIDQLDFIALRTAADAFLPDPELAAAALRVAIRAGRPPSPPESGPRFPAVDLSKL	failed
MQPLLRTAGFSLLLLAASCGVGAQPEPQNSRLTAIKMDGELPARAAIAGLFAELDFQQATQSYLWALPLVSYAQWQGEFRDKLHAGNGDLMVLESYEDKLGVITANATTPYILGFVDLNQTGPMVVELPPGPTAGGVGDFWQRAITDMGQTGPDQGKGGKYLVLPPGHPEPSDADQYYLAKSQTMNVLVGFRVLDPDPAKGKALVQQFKMYPYAQRATPPATRLLSPGGKPWSGTQPRGMAYWERLHQIIQQEPVNERDRFYMAMLASLGIEKDKPFNPNEHQRQALEQGARMGELIAQANTFAKRFADAQYWPDRQWDKVLNIADPSQRVAYYDQLWERSAWFYEAVTNTKGMVSKTPGLGQTYLGAYTDHNGQWLDGGKHYRLHLGSNPPARQFWSLTVYDSASRCLIDNPQRKADLSSRQDLKKNPDGSLDLYFGPSAPKGLESNWVQTLPGKHWFSYFRLYAPTEAYFDKRWKLDDITLVQ	failed
MQPRLVIAGTHSGVGKTTVTLGLMAAFVEKGNIVQGFKCGPDYIDPSYHRAVTKRASRNLDSWMVSEDVVNDIFIEGCNGADLSIIEGVMGFYDGKASTSDKGSTADISLLLQAPVLLVVDISGMARSAAAVVKGFQQLNEKVKIAGVILNGAGSERHAEMCSEAIKEACGIPALGYLKKGDVPSIPERHLGLVPALERGEHDSLFSQLAAVVSRQFDLERIERLALEASALSRRTNLFQQTKRPSVVKIAVAYDAAFHFYYEENFTLLRQAGAELVYFSPLRGEDLPSHCDGLYLGGGFPEEFADELSQWIKDHPQLKKRVQSGLPTLAECGGYMFLGEQLTTTKGKTVEMAGVIPMVVQMENKLVSLGYRDVTPLDDSFLLSKGQQIRGHEFHYSKAVYTETERPAYFVKGLFGEGKEGYMSDHLLAGYTHLHFASEPAVATQWVKACEVYKNRRLHRGQVSQLEHHHHHH	not failed
MQQHSSKTAYVYSDKLLQYRFHDQHPFNQMRLKLTTELLLNANLLSPEQIVQPRIATGDELMLIHKYDYVEAIKHASHGIISEDEAKKYGLNDEENGQFKHMHRHSATIVGGALTLADLIMSGKVLNGCHLGGGLHHAQPGRASGFCIYNDIAITAQYIAKEYNQRVLIIDTDAHHGDGTQWSFYADNHVTTYSIHETGKFLFPGSGHYTERGEDIGYGHTVNVPLEPYTEDASFLECFKLTVEPVVKSFKPDIILSVNGVDIHYRDPLTHLNCTLHSLYEIPYFVKYLADSYTNGKVIMFGGGGYNIWRVVPRAWSHVFLSLIDQPIQSGYLPLEWINKWKHYSSELLPKRWEDRLNDYTYVPRTKEISEKNKKLALHIASWYESTRQLEHHHHHH	failed
MQQTVTYGAKWKQFLTIFTPIVITQLTLFSMTFFDTTMSGNYSNQALAGVAIGSSFWAPVNAAFSGLLMAITPIIAQLIGAKKEKQVKNTVHNGLYIALFLAFILILINFLVVPTILTHMPVTAEVAHIARHFLNGICIGIPAFFISAILRSFIDSLGLTRVTMLITLCTVPFNIFLNYCFIFGNFGFPEMGGAGSGYATGITYWLVVLVSVILIQTQTRLRKFGIFKGLTALRFSKVKEIIGIGVPNGLTILFETSIFSAVTILMGAFGTETIAAHQSANSVCTLLYAFPLSVASTLTILGGYETGAKRLKDAKQYRHIGMTAAILIGCINGAILFFFRDIIAGFYTNDAELSDLIMHFLVYAILFQFADAVLSPVLGALRGYKDVAITSIIAFISYWLIGLPVGYGLSFTNLGPFGYWIGLSTGLFVAAFILSIRVRKTERKLSLNAKNAEISS	not failed
MQQVGFGTWNWVAVIVYLVLMLLVGAYFTKRASQNTDSFFTASGRLPSWAVGFSIYATTLSAITFMSTPEKAFLTDWSYIAGNIAIVAIIPLLIYFYVPFFKKLKVTSAYEYLEARFRPSVRVIGSLLFVLFHLGRVAIVIYLPTLAITAVSDLNPYVVASLVGILCILYTFLGGFEGVVWSDFIQGIILLGGAAAIIILGIIHIKGGMGTVVTDALDHKKLISADNWKFNTAAAAIPIIFLGNIFNNLHQYTASQDVVQRYQASESMSETKKSLWMNGVLALISAPLFYGMGTMLYSFYTHESALPEGFNTSSIVPYLILTEMPPFIAGLLIATIFAAAQSTISSSLNSISACLSVDIKHRIFGKGKEKDEVTFARWMIILSGLFGFGMSIYLIASDSNDLWDLFLLITGLVGVPLAGVFAVGIFTKRTNTLGVICGLALGIIFAYIFNGIGGGNSPFFVSIISFLVAFIFSYLIRIVIPDKKKDIVGLTIFDIKEKSNYVSKIHVKK	failed
